Experimental data reported in publication PMC2632919 (Nucleic Acids Research, 2008).

Tests used:
AUC = molecular target: the molecule itself; assay: AUC
[1] = molecular target: T1, HmtSSB (human mitochondrial SSB) (Homo sapiens, UniProt Q04837 17-148); assay: fluorescence anisotropy
T1 sequence: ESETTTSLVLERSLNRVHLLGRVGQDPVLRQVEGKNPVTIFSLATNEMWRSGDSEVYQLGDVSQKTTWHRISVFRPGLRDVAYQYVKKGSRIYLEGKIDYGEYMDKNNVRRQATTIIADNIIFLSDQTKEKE

[2] = molecular target: T1, HmtSSB (human mitochondrial SSB); assay: fluorescence anisotropy; remark: listed apart in the source

Binder | stoichiometry N (AUC) | Kd [1] [nM] | apparent K (half saturation) [2] [nM]
human mitochondrial single-stranded DNA-binding protein (HmtSSB) (natural protein, UniProt Q04837 17-148, looked up) ESETTTSLVLERSLNRVHLLGRVGQDPVLRQVEGKNPVTIFSLATNEMWRSGDSEVYQLGDVSQKTTWHRISVFRPGLRDVAYQYVKKGSRIYLEGKIDYGEYMDKNNVRRQATTIIADNIIFLSDQTKEKE | 4 | – | –
GTTTTCCCAGTCACGAC (ssDNA) [17-mer] | – | 19.2 ± 3.1 | 19.4 ± 4
